Here are results for one molecule from patent US6495673 (MEDICAL RESEARCH COUNCIL, dated 2002).

No end group written: not given here. *: point of attachment. Biotin = O=C1N[C@H]2[C@H](CS[C@H]2CCCCC(=O)*)N1 Where only a bound is given, the exact number is not on record here.

Experiment [1] has as its target Calmodulin-tagged phage DN323 (calmodulin displayed as a gene III fusion on filamentous phage, from phagemid … (filamentous phage, UniProt P0DP23 2-149)). Nature of the experiment: competition ELISA over time with 1000-fold excess of unlabeled peptide. Background: ELISA stands for enzyme-linked immunosorbent assay.
Experiment [2] concerns the target T1, GST-phage fusion FV7 (glutathione S-transferase displayed on phage without calmodulin, from vector pFV7) (S. japonica; filamentous phage, UniProt P08515 1-218 = GST; P69168 19-424).
T1 construct: Any vector tags of pCANTAB6 are not described; also called non-specific phage; E-fd (GST)
Nature of the experiment: phage ELISA on streptavidin plate with biotin-peptide.

T1 sequence (P08515 1-218, tags or fused parts left off): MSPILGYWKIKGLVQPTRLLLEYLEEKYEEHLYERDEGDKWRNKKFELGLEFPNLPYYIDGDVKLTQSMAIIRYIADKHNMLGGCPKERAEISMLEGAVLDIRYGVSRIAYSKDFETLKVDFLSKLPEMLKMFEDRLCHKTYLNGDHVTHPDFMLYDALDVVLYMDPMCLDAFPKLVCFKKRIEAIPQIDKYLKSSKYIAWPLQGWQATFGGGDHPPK

What is called koff is the first-order rate constant of dissociation. Low readings indicate slow dissociation, high ones fast dissociation. Take Biotin-CAAARWKKAFIAVSAANRFKKIS [biotin-labeled CAAARWKKAFIAVSAANRFKKIS peptide (SEQ ID NO: 15)]: the off-rate (koff) in experiment [1] is less than 0.1 s⁻¹. The binding result in experiment [2] is “no binding”.
